In paper PMC3315321:

Biological target: T1, RIG-I (human, UniProt O95786 1-925)
T1 sequence: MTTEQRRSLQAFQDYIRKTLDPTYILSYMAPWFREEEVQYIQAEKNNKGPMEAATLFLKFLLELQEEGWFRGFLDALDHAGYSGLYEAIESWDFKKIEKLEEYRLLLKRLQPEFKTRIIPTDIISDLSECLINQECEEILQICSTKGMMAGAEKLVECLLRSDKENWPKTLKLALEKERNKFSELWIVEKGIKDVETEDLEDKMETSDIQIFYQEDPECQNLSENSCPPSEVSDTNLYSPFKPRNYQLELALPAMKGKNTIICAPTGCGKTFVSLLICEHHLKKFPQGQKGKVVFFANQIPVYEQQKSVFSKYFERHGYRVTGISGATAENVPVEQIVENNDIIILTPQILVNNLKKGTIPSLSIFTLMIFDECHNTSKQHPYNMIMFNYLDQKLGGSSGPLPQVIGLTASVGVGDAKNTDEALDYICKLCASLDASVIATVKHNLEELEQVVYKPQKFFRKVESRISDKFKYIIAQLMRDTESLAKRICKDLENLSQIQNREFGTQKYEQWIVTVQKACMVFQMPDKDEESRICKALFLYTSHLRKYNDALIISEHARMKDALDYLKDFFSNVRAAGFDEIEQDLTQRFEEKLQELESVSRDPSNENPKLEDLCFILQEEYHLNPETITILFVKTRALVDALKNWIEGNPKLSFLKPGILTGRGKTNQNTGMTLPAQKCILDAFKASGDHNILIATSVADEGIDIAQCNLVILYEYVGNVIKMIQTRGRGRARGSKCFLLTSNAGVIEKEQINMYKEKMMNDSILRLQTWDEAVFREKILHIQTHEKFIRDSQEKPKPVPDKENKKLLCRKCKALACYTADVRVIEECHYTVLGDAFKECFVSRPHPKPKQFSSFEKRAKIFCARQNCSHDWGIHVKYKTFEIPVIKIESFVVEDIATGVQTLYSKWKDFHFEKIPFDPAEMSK
Assay: filter binding

B1: CL9 (AP-treated) (XNA)
RNA: GGGAGAGCGGAAGCGUGCUGGGCCACCAUCCGUAACUAGCUAAUACUUGUUAUCUUUUUAUUUUCAUAACCCAGAGGUCGAUGGAUCCCCCC
modifications: 2'-F U and 2'-F C (all)
- Kd: 0.0372 µM
